{"source": "patent US20240262923A1", "about": "(Sanofi, published 2024)", "binders": {"B1": {"name": "anti-PD-1 antibody clone T5 (IgG1 LALA) (antibody, V domains shown)", "VH": "QLQLQESGPGLVKPSETLSLTCTVSGGSISTSSYFWGWIRQPPGKGLEWIGSIYRSGSTYYNPSLKSRVTISVDTSKNQFSLKLSSVTAADTAVYYCARGITGDPGDYWGQGTLVTVSS", "VL": "EIVLTQSPATLSLSPGERATLSCGASQSVSINFLAWYQQKPGLAPRLLIYEASSRATGIPDRFSGSGSGTDFTLTISRLEPEDFAVYYCQQYGSSPYTFGQGTKLEIK"}, "B2": {"name": "Optimized Construct #3 (bispecific antibody)", "heavy": "not shown", "light": "EIVLTQSPATLSLSPGERATLSCGASQSVPINFLAWYQQKPGLAPRLLIYEASSRHTGIPDRFSGSGSGTDFTLTISRLEPEDFAVYYCGQYGSSPYTFGQGTKLEIKRTVAAPSVFIFPPSDEQLKSGTASVVCLLNNFYPREAKVQWKVDNALQSGNSQESVTEQDSKDSTYSLSSTLTLSKADYEKHKVYACEVTHQGLSSPVTKSFNRGEC", "notes": "also called Optimized Construct #3 (unmasked); naked"}, "B3": {"name": "anti-4-1BB VHH Clone #5, bivalent monoparatopic Fab-like construct (other)", "chain 1": "QVQLQESGGGLVQPGGSLRLSCAASGFTFSDHTMTWVRQAPGKGLEWVSSISSGGSRIIYADSVKGRFTISRDNAKNTLYLQMNNLRPEDTAVYFCARGTRYKMSTSGPGTQVTVSS", "chain 2": "B3 chain 1", "notes": "not shown: human CL (lambda) constant domain, tag if any; human IgG1 CH1 domain, HA and 6-His tags"}, "B4": {"name": "anti-4-1BB clone #2 VHH (VHH)", "VHH": "QVQLQESGGGLVQPGGSLRLSCAASGGLFSINTGGWYRQAPGKQRELVATITHDDRTNYAESVKGRFTLSRDNAKNTVYLQMNSLKPEDTAVYYCRLGSAAIRGYWGQGTQVTVSS"}, "B5": {"name": "anti-4-1BB clone #5 VHH (VHH)", "VHH": "B3 chain 1"}, "B6": {"name": "anti-4-1BB VHH Clone #2, bivalent monoparatopic Fab-like construct (other)", "chain 1": "B4 VHH", "chain 2": "B4 VHH", "notes": "as for B3"}, "B7": {"name": "anti-4-1BB clone #5c VHH, bivalent monoparatopic Fab-like construct (other)", "chain 1": "QVQLQESGGGLVQAGGSLRLSCAASGDTFSSYAMGWFRQAPGERLEWVASINPSGGSQSYHPSVKDRFTISRDNGKNILFLQLDKLNPEDTAVYVCARGTRYKIFASGQGTQVTVSS", "chain 2": "B7 chain 1", "notes": "as for B3"}, "B8": {"name": "anti-PD-1 antibody clone T5, Fab format (Fab, V domains shown)", "VH": "B1 VH", "VL": "B1 VL"}}, "key": {"[1]": {"biological_target": "T1, human PD-1 expressed on cells (300.19 pre-B cells, PD-1 NFAT-luc2 Jurkat cells, primary T-cells) (human, UniProt Q15116 25-288)", "T1 sequence (Q15116 25-288 limits assumed)": "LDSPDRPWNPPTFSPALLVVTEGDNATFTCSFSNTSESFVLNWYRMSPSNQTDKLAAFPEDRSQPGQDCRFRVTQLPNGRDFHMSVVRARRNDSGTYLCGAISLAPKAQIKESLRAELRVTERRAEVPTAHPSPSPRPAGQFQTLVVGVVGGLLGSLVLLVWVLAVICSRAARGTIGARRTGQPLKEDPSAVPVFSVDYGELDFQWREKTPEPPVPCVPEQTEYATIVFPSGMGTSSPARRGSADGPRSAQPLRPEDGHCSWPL", "assay": "cell-based or functional assay"}, "[2]": {"biological_target": "T1, human PD-1 expressed on cells (300.19 …)", "assay": "flow cytometry on Jurkat reporter cells"}, "[3]": {"biological_target": "T2, cynomolgus monkey PD-1 expressed on 300.19 pre-B cells (cynomolgus monkey, UniProt B0LAJ3 25-288)", "T2 construct": "also called cyPD-1; Pre-B cyPD-1", "T2 sequence (B0LAJ3 entry or part of it limits assumed)": "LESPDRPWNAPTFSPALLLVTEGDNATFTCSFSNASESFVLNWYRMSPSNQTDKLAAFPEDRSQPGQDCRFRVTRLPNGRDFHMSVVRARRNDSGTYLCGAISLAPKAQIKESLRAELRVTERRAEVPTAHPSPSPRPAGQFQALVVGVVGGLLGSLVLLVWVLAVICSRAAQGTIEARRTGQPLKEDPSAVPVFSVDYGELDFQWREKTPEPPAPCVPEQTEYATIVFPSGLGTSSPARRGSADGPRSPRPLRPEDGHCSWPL", "assay": "flow cytometry on transfected 300.19 pre-B cells"}, "[4]": {"biological_target": "T3, human 4-1BB expressed on cells (300.19 pre-B cells, Jurkat NF-κB-luc2P cells, primary T-cells) (human, UniProt Q07011 24-255)", "T3 construct": "also called h4-1BB; Pre-B h4-1BB", "T3 sequence (Q07011 24-255 limits assumed)": "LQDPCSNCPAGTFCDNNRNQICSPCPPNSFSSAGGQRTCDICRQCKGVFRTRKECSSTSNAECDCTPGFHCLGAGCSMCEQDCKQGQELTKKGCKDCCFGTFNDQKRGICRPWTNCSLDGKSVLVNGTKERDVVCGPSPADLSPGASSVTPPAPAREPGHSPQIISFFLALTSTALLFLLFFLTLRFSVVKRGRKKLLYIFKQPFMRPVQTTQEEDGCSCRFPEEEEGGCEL", "assay": "flow cytometry on transfected 300.19 pre-B cells"}, "[5]": {"biological_target": "T4, cynomolgus monkey 4-1BB expressed on 300.19 pre-B cells (cynomolgus monkey, UniProt A9YYE7 24-254)", "T4 construct": "whole, on cells; also called cy4-1BB; Pre-B cy4-1BB", "assay": "flow cytometry on transfected 300.19 pre-B cells"}, "[6]": {"biological_target": "T1, human PD-1 expressed on cells (300.19 …)", "assay": "flow cytometry on transfected 300.19 pre-B cells"}, "[7]": {"biological_target": "T5, PD-1 in the PD-1/PD-L1 interaction assay (human, UniProt Q15116 25-167, limits assumed)", "T5 sequence (Q15116 25-167 limits assumed)": "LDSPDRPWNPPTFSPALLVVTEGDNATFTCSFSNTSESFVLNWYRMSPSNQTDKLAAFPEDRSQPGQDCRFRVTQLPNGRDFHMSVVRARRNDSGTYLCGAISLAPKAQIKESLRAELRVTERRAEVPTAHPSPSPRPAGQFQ", "assay": "PD-1/PD-L1 interaction assay, Relative EC50, IgG1 LALA"}, "[8]": {"biological_target": "T1, human PD-1 expressed on cells (300.19 …)", "assay": "flow cytometry on anti-CD3-stimulated primary human T-cells"}, "[9]": {"biological_target": "T1, human PD-1 expressed on cells (300.19 …)", "assay": "cell-based or functional assay", "remark": "listed apart in the source"}, "[10]": {"biological_target": "T4, cynomolgus monkey 4-1BB expressed on …", "assay": "flow cytometry on 300.19 pre-B cells"}, "[11]": {"biological_target": "T2, cynomolgus monkey PD-1 expressed on …", "assay": "flow cytometry on 300.19 pre-B cells"}, "[12]": {"biological_target": "T1, human PD-1 expressed on cells (300.19 …)", "assay": "flow cytometry on 300.19 pre-B cells"}, "[13]": {"biological_target": "T6, cynomolgus monkey PD-1 (SPR analyte) (cynomolgus monkey, UniProt B0LAJ3 25-170)", "T6 construct": "also called cyPD-1", "T6 sequence (B0LAJ3 entry or part of it limits assumed)": "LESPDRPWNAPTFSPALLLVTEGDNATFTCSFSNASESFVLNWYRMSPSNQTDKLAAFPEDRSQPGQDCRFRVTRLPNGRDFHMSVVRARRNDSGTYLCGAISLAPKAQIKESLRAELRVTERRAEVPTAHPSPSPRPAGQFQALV", "assay": "SPR, KD on cyPD-1 against KD on hPD-1"}, "[14]": {"biological_target": "T1, human PD-1 expressed on cells (300.19 …)", "assay": "flow cytometry on PD-1+ Jurkat T-cells"}, "[15]": {"biological_target": "T7, cynomolgus monkey 4-1BB (SPR analyte) (cynomolgus monkey, UniProt A9YYE7 24-186)", "T7 construct": "also called cy4-1BB", "T7 sequence": "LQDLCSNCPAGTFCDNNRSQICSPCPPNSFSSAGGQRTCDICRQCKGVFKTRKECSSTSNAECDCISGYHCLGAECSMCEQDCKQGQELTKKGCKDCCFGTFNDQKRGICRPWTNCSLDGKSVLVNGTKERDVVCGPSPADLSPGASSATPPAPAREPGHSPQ", "assay": "SPR, KD on cy4-1BB against KD on h4-1BB"}, "[16]": {"biological_target": "T4, cynomolgus monkey 4-1BB expressed on …", "assay": "flow cytometry on 300.19 pre-B cells, cy4-1BB"}, "[17]": {"biological_target": "T2, cynomolgus monkey PD-1 expressed on …", "assay": "flow cytometry on 300.19 pre-B cells, cyPD-1 against hPD-1"}, "[18]": {"biological_target": "T4, cynomolgus monkey 4-1BB expressed on …", "assay": "flow cytometry on 300.19 pre-B cells, cy4-1BB against h4-1BB"}, "human PD-1 (SPR analyte) [19]": {"biological_target": "T8, human PD-1 (SPR analyte) (human, UniProt Q15116 25-167, limits assumed)", "T8 construct": "Soluble analyte in SPR; also called hPD-1", "T8 sequence (Q15116 25-167 limits assumed)": "as the sequence (Q15116 25-167 limits assumed) above", "assay": "SPR (Biacore 8K), binder captured on anti-Fc chip, target as analyte, 1:1 model"}, "[20]": {"biological_target": "T7, cynomolgus monkey 4-1BB (SPR analyte)", "assay": "SPR (Biacore 8K), binder captured on anti-Fc chip, target as analyte, 1:1 model"}, "[21]": {"biological_target": "T6, cynomolgus monkey PD-1 (SPR analyte)", "assay": "SPR (Biacore 8K), binder captured on anti-Fc chip, target as analyte, 1:1 model"}, "human PD-1 (SPR analyte) [22]": {"biological_target": "T8, human PD-1 (SPR analyte)", "assay": "SPR (Biacore 8K), binder captured on anti-Fc chip, target as analyte, 1:1 model", "remark": "listed apart in the source"}, "human OX40": {"biological_target": "T9, human OX40 (human, UniProt P43489 29-216)", "T9 construct": "also called hOX40", "T9 sequence (looked up)": "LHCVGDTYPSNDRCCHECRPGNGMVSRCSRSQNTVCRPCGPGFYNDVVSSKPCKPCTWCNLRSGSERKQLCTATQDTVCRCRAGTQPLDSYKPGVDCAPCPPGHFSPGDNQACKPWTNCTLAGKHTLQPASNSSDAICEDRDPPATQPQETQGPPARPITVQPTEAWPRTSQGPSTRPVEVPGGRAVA", "assay": "binding assay (FIG. 2), bivalent Fab-like"}, "human CD40": {"biological_target": "human CD40 (human, UniProt P25942 21-193)", "sequence (P25942 21-193 limits assumed)": "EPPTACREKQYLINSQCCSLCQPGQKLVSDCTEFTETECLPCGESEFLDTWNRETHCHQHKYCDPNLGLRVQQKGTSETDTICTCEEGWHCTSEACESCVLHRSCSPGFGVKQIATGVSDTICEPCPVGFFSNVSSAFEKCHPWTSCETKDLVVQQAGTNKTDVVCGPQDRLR", "assay": "binding assay (FIG. 2), bivalent Fab-like"}, "[23]": {"biological_target": "T10, human His-tagged 4-1BB recombinant protein (human, UniProt Q07011 24-186)", "T10 construct": "also called human 4-1BB; h4-1BB; not shown: His tag", "assay": "ELISA binding on 4-1BB-his, bivalent monoparatopic Fab-like constructs"}, "[24]": {"biological_target": "T11, extracellular domain of human 4-1BB (amino acid residues 24-186 of SEQ ID NO: 13) (human, UniProt Q07011 24-186)", "T11 construct": "Used for X-ray crystallography", "assay": "X-ray crystallography of the complex"}, "[25]": {"biological_target": "T10, human His-tagged 4-1BB recombinant …", "assay": "binding assay (FIG. 2), bivalent monoparatopic Fab-like"}, "[26]": {"biological_target": "T10, human His-tagged 4-1BB recombinant …", "assay": "ELISA (FIG. 7A), bivalent monoparatopic Fab-like"}, "[27]": {"biological_target": "T5, PD-1 in the PD-1/PD-L1 interaction assay", "assay": "PD-1/PD-L1 interaction assay, Relative EC50, Fab"}, "[28]": {"biological_target": "T5, PD-1 in the PD-1/PD-L1 interaction assay", "assay": "PD-1/PD-L1 interaction assay, EC50 of Fab against IgG1 LALA"}}, "note": "Like-named read-outs stand apart in the source and are kept apart here.", "data": [{"binder": "B1", "values": [{"measurement": "IC50 (nM) PD-1 reporter assay", "setting": "[1]", "value": 2.8, "unit": "nM"}, {"measurement": "EC50", "setting": "[2]", "value": 0.278, "unit": "nM"}, {"measurement": "Emax", "setting": "[2]", "value": 280, "unit": "MFI"}, {"measurement": "EC50", "setting": "[3]", "value": 0.417, "unit": "nM"}, {"measurement": "Emax", "setting": "[3]", "value": 17700, "unit": "MFI"}, {"measurement": "binding result", "setting": "[4]", "value": "no binding"}, {"measurement": "binding result", "setting": "[5]", "value": "no binding"}, {"measurement": "EC50", "setting": "[6]", "value": 0.284, "unit": "nM"}, {"measurement": "Emax", "setting": "[6]", "value": 6240, "unit": "MFI"}, {"measurement": "EC50", "setting": "[7]", "value": 0.278, "unit": "nM"}, {"measurement": "EC50", "setting": "[8]", "value": 0.205, "unit": "nM"}]}, {"binder": "B2", "values": [{"measurement": "EC50 value (nM), PD-1 reporter assay", "setting": "[9]", "value": 1.39, "unit": "nM"}, {"measurement": "EC50", "setting": "[10]", "value": 0.91, "unit": "nM"}, {"measurement": "EC50", "setting": "[11]", "value": 1.45, "unit": "nM"}, {"measurement": "EC50", "setting": "[12]", "value": 1.4, "unit": "nM"}, {"measurement": "Ratio KD cyno/human", "setting": "[13]", "value": 2, "unit": "fold"}, {"measurement": "EC50", "setting": "[14]", "value": 0.5, "unit": "nM"}, {"measurement": "Ratio KD cyno/human", "setting": "[15]", "value": 1.9, "unit": "fold"}, {"measurement": "masking efficacy (masked EC50/naked EC50)", "setting": "[16]", "value": 1, "unit": "fold"}, {"measurement": "Ratio EC50 cy/h", "setting": "[17]", "value": 1.04, "unit": "fold"}, {"measurement": "Ratio EC50 cy/h", "setting": "[18]", "value": 0.3, "unit": "fold"}, {"measurement": "Kd", "setting": "human PD-1 (SPR analyte) [19]", "value": 4.54, "unit": "nM"}, {"measurement": "Kd", "setting": "[20]", "value": 21.1, "unit": "nM"}, {"measurement": "Kd", "setting": "[21]", "value": 14.9, "unit": "nM"}, {"measurement": "Kd", "setting": "human PD-1 (SPR analyte) [22]", "value": 7.29, "unit": "nM"}]}, {"binder": "B3", "values": [{"measurement": "binding result", "setting": "human OX40", "value": "no binding"}, {"measurement": "binding result", "setting": "human CD40", "value": "no binding"}, {"measurement": "EC50 (read off the curve)", "setting": "[23]", "value": "~3", "unit": "nM"}]}, {"binder": "B4", "values": [{"measurement": "binding result", "setting": "[24]", "value": "binds"}]}, {"binder": "B5", "values": [{"measurement": "binding result", "setting": "[24]", "value": "binds"}]}, {"binder": "B6", "values": [{"measurement": "binding result", "setting": "human OX40", "value": "no binding"}, {"measurement": "binding result", "setting": "human CD40", "value": "no binding"}, {"measurement": "binding result", "setting": "[25]", "value": "binds"}]}, {"binder": "B7", "values": [{"measurement": "binding result", "setting": "[26]", "value": "binds"}]}, {"binder": "B8", "values": [{"measurement": "EC50", "setting": "[27]", "value": 48.8, "unit": "nM"}, {"measurement": "Ratio Fab:IgG1", "setting": "[28]", "value": 176, "unit": "fold"}]}]}
